Measured values as given in paper PMC3591605.

Biological target: histones (calf thymus, type IIIS) (calf (thymus)) (UniProt P02253)
Test: ITC

Chain of UniProt P02253 (P02253 whole entry): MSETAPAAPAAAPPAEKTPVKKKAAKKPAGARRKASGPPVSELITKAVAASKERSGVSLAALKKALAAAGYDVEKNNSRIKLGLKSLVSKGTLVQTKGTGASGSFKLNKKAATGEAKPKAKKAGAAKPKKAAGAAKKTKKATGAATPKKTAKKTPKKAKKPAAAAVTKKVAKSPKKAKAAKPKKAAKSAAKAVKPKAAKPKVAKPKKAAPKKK

Kd: 191 nM
Substance: large fibrin degradation products (molecular masses >150 kDa) (from UniProt P02671 36-866; P02675 45-491; P02679 27-453) (complex)
